Assay [1] deals with HLA-PEPTIDE target G8: HLA-A*02:01_…, recombinant soluble complex (human, enzymatically biotinylated (BirA) for screening and BLI). Put plainly: phage display, scFv ELISA on pHLA against negative control pHLAs. On the technique in general: In an ELISA, binding on a coated surface is turned into a signal by an enzyme label.
Assay [2] has as its target HLA-PEPTIDE target G10: HLA-A*01:01_…, recombinant soluble complex (human, enzymatically biotinylated (BirA)). The assay is described as above.

The values that follow come from patent US20220162320A1 (published 2022).

B1: scFv G8(1H08) (scFv, V domains shown)
VH: QVQLVQSGAEVKKPGASVKVSCKASGYTFGNYFMHWVRQAPGQGLEWMGMVNPSGGSETFAQKFQGRVTMTRDTSTSTVYMELSSLRSEDTAVYYCAASTWIQPFDYWGQGTLVTVSS
VL: DIQMTQSPSSLSASVGDRVTITCRASQGINSYLAWYQQKPGKAPKLLIYDASNLETGVPSRFSGSGSGTDFTLTISSLQPEDFATYYCQQHNSYPPTFGQGTKLEIK
notes: also called G8-P1H08
With B1, the binding result in assay [1] is given as “binds”.

B2: scFv G8(1C01) (scFv, V domains shown)
VH: QVQLVQSGAEVKKPGASVKVSCKASGGTFSSHAISWVRQAPGQGLEWMGVIIPSGGTSYTQKFQGRVTMTRDTSTSTVYMELSSLRSEDTAVYYCARGDYYDSSGYYFPVYFDYWGQGTLVTVSS
VL: DIQMTQSPSSLSASVGDRVTITCRASQNIYTYLNWYQQKPGKAPKLLIYDASNLETGVPSRFSGSGSGTDFTLTISSLQPEDFATYYCQQANGFPLTFGGGTKVEIK
B2: the binding result in assay [1] is given as “binds”.

B3: scFv G10(2G11) (scFv, V domains shown)
VH: QVQLVQSGAEVKKPGASVKVSCKASGGTFSTHDINWVRQAPGQGLEWMGVINPSGGSAIYAQKFQGRVTMTRDTSTSTVYMELSSLRSEDTAVYYCARDRGYSYGYFDYWGQGTLVTVSS
VL: DIQMTQSPSSLSASVGDRVTITCRASQDISRYLAWYQQKPGKAPKLLIYDASNLETGVPSRFSGSGSGTDFTLTISSLQPEDFATYYCQQANSFPRTFGQGTKVEIK
For the molecule B3, the binding result in assay [2] is given as “binds”.

B4: scFv G8(5F02) (scFv, V domains shown)
VH: QVQLVQSGAEVKKPGASVKVSCKASGYTFTGYYIHWVRQAPGQGLEWMGVINPSGGSTTYAQKLQGRVTMTRDTSTSTVYMELSSLRSEDTAVYYCARDRDSSWTYYYYGMDVWGQGTTVTVSS
VL: EIVMTQSPATLSVSPGERATLSCRASQSVGNSLAWYQQKPGQAPRLLIYGASTRATGIPARFSGSGSGTEFTLTISSLQSEDFAVYYCQQYGSSPYTFGQGTKVEIK
With B4, the binding result in assay [1] is “binds”.

B5: scFv G10(3E04) (scFv, V domains shown)
VH: QVQLVQSGAEVKKPGASVKVSCKASGNTFIGYYVHWVRQAPGQGLEWVGIINPNGGSISYAQKFQGRVTMTRDTSTSTVYMELSSLRSEDTAVYYCARGSGDPNYYYYYGLDVWGQGTTVTVSS
VL: DIQMTQSPSSLSASVGDRVTITCQASQDISNYLNWYQQKPGKAPKLLIYAASNLQSGVPSRFSGSGSGTDFTLTISSLQPEDFATYYCQQANSLPYTFGQGTKVEIK
For B5, the binding result in assay [2] is given as “binds”.

B6: scFv G8(1A03) (scFv, V domains shown)
VH: QVQLVQSGAEVKKPGASVKVSCKASGGTFSRSAITWVRQAPGQGLEWMGWINPNSGATNYAQKFQGRVTMTRDTSTSTVYMELSSLRSEDTAVYYCARDDYGDYVAYFQHWGQGTLVTVSS
VL: DIQMTQSPSSLSASVGDRVTITCRASQSITSYLNWYQQKPGKAPKLLIYDASNLETGVPSRFSGSGSGTDFTLTISSLQPEDFATYYCQQNYNSVTFGQGTKLEIK
Take B6: the binding result in assay [1] is “binds”.

B7: scFv G10(4D04) (scFv, V domains shown)
VH: QVQLVQSGAEVKKPGASVKVSCKASGYTFTGYYVHWVRQAPGQGLEWMGIIAPSDGSTNYAQKFQGRVTMTRDTSTSTVYMELSSLRSEDTAVYYCARDPGGYMDVWGKGTTVTVSS
VL: DIQMTQSPSSLSASVGDRVTITCRASQSISSYLAWYQQKPGKAPKLLIYDASKLETGVPSRFSGSGSGTDFTLTISSLQPEDFATYYCQQSYGVPTFGQGTKLEIK
B7: the binding result in assay [2] is “binds”.

B8: scFv G8(2B05) (scFv, V domains shown)
VH: EVQLLESGGGLVQPGGSLRLSCAASGFDFSIYSMNWVRQAPGKGLEWVSAISGSGGSTYYADSVKGRFTISRDNSKNTLYLQMNSLRAEDTAVYYCASNGNYYGSGSYYNYWGQGTLVTVSS
VL: DIQMTQSPSSLSASVGDRVTITCRASQSISRWLAWYQQKPGKAPKLLIYAASSLQSGVPSRFSGSGSGTDFTLTISSLQPEDFATYYCQQYSTYPITIGQGTKVEIK
B8: the binding result in assay [1] is reported as “binds”.

B9: scFv G8(1A04) (scFv, V domains shown)
VH: QVQLVQSGAEVKKPGASVKVSCKASGYPFIGQYLHWVRQAPGQGLEWMGIINPSGDSATYAQKFQGRVTMTRDTSTSTVYMELSSLRSEDTAVYYCARDLSYYYGMDVWGQGTTVTVSS
VL: DIQMTQSPSSLSASVGDRVTITCWASQGISSYLAWYQQKPGKAPKLLIYAASSLQSGVPSRFSGSGSGTDFTLTISSLQPEDFATYYCQQSYNTPWTFGPGTKVDIK
Turning to B9, in assay [1], the binding result is “binds”.

B10: scFv G10(4D10) (scFv, V domains shown)
VH: QVQLVQSGAEVKKPGASVKVSCKASGYTFTGYYLHWVRQAPGQGLEWMGMIGPSDGSTSYAQKFQGRVTMTRDTSTSTVYMELSSLRSEDTAVYYCARDGDAFDIWGQGTMVTVSS
VL: DIQMTQSPSSLSASVGDRVTITCRASQGISSWLAWYQQKPGKAPKLLIYDASNLETGVPSRFSGSGSGTDFTLTISSLQPEDFATYYCQQSYSTPLTFGGGTKVEIK
In the case of B10, in assay [2], the binding result is given as “binds”.

B11: scFv G8(1D02) (scFv, V domains shown)
VH: EVQLLESGGGLVQPGGSLRLSCAASGFTFSSYWMSWVRQAPGKGLEWVSSISGRGDNTYYADSVKGRFTISRDNSKNTLYLQMNSLRAEDTAVYYCARASGSGYYYYYGMDVWGQGTTVTVSS
VL: DIQMTQSPSSLSASVGDRVTITCQASQDISNYLNWYQQKPGKAPKLLIYAASSLQSGVPSRFSGSGSGTDFTLTISSLQPEDFATYYCQQSYSAPYTFGGGTKVEIK
For the molecule B11, in assay [1], the binding result was “binds”.

B12: scFv G8(1B03) (scFv, V domains shown)
VH: EVQLLESGGGLVQPGGSLRLSCAASGFTFSDYYMSWVRQAPGKGLEWVSGINWNGGSTGYADSVKGRFTISRDNSKNTLYLQMNSLRAEDTAVYYCARVEQGYDIYYYYYMDVWGKGTTVTVSS
VL: DIQMTQSPSSLSASVGDRVTITCRASQSISSYLNWYQQKPGKAPKLLIYKASSLESGVPSRFSGSGSGTDFTLTISSLQPEDFATYYCQQSYSAPYTFGPGTKVDIK
With B12, the binding result in assay [1] is reported as “binds”.

B13: scFv G8(5C03) (scFv, V domains shown)
VH: QVQLVQSGAEVKKPGASVKVSCKASGYTFTSYYMHWVRQAPGQGLEWMGWMNPNSGNTGYAQKFQGRVTMTRDTSTSTVYMELSSLRSEDTAVYYCARGLLGFGEFLTYGMDVWGQGTLVTVSS
VL: DIQMTQSPSSLSASVGDRVTITCRASQGISNWLAWYQQKPGKAPKLLIYAASTLQSGVPSRFSGSGSGTDFTLTISSLQPEDFATYYCQQTYSTPWTFGQGTKLEIK
B13: in assay [1], the binding result was “binds”.

B14: scFv G10(1A07) (scFv, V domains shown)
VH: EVQLLESGGGLVKPGGSLRLSCAASGFTFSSYWMSWVRQAPGKGLEWVSGISARSGRTYYADSVKGRFTISRDDSKNTLYLQMNSLKTEDTAVYYCARDQDTIFGVVITWFDPWGQGTLVTVSS
VL: DIQMTQSPSSLSASVGDRVTITCRASQGISNYLAWYQQKPGKAPKLLIYAASSLQGGVPSRFSGSGSGTDFTLTISSLQPEDFATYYCQQYFTTPYTFGQGTKLEIK
In the case of B14, the binding result in assay [2] is “binds”.

B15: scFv G8(2E06) (scFv, V domains shown)
VH: QVQLVQSGAEVKKPGASVKVSCKASGYTLTTYYMHWVRQAPGQGLEWMGWINPNSGGTNYAQKFQGRVTMTRDTSTSTVYMELSSLRSEDTAVYYCARAVYYDFWSGPFDYWGQGTLVTVSS
VL: DIQMTQSPSSLSASVGDRVTITCRASQGISNSLAWYQQKPGKAPKLLIYAASSLQSGVPSRFSGSGSGTDFTLTISSLQPEDFATYYCQQANSFPWTFGQGTKLEIK
On to B15, for which the binding result in assay [1] is recorded as “binds”.

B16: scFv G8(4F05) (scFv, V domains shown)
VH: QVQLVQSGAEVKKPGASVKVSCKASGYTFSNMYLHWVRQAPGQGLEWMGWINPNTGDTNYAQTFQGRVTMTRDTSTSTVYMELSSLRSEDTAVYYCARGLYGDYFLYYGMDVWGQGTKVTVSS
VL: DIQMTQSPSSLSASVGDRVTITCRASQGISNYLAWYQQKPGKAPKLLIYAASTLQSGVPSRFSGSGSGTDFTLTISSLQPEDFATYYCQQSYSTPLTFGGGTKVEIK
Turning to B16, the binding result in assay [1] is reported as “binds”.

B17: scFv G10(1H01) (scFv, V domains shown)
VH: QVQLVQSGAEVKKPGASVKVSCKASGYTFTGYYMHWVRQAPGQGLEWMGMIGPSDGSTSYAQKFQGRVTMTRDTSTSTVYMELSSLRSEDTAVYYCARGVGNLDYWGQGTLVTVSS
VL: DIQMTQSPSSLSASVGDRVTITCRASQSISNYLNWYQQKPGKAPKLLIYAASSLQSGVPSRFSGSGSGTDFTLTISSLQPEDFATYYCHQTYSTPLTFGQGTKVEIK
With B17, the binding result in assay [2] is “binds”.

B18: scFv G10(2C04) (scFv, V domains shown)
VH: QVQLVQSGAEVKKPGASVKVSCKASGGTFSNSIINWVRQAPGQGLEWMGWMNPNSGNTNYAQKFQGRVTMTRDTSTSTVYMELSSLRSEDTAVYYCAREQWPSYWYFDLWGRGTLVTVSS
VL: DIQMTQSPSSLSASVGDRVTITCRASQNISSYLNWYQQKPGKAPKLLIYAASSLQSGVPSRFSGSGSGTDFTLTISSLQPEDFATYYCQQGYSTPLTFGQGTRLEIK
In the case of B18, the binding result in assay [2] is recorded as “binds”.

B19: scFv G10(1E12) (scFv, V domains shown)
VH: QVQLVQSGAEVKKPGASVKVSCKASGYIFTGYYMHWVRQAPGQGLEWMGMIGPSDGSTSYAQKFQGRVTMTRDTSTSTVYMELSSLRSEDTAVYYCAREDDSMDVWGKGTTVTVSS
VL: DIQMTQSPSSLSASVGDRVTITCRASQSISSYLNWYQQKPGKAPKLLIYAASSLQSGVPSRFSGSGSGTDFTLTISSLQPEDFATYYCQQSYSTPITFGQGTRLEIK
For the molecule B19, in assay [2], the binding result was “binds”.

B20: scFv G8(1A06) (scFv, V domains shown)
VH: QVQLVQSGAEVKKPGASVKVSCKASGYTFTNYYMHWVRQAPGQGLEWMGWMNPIGGGTGYAQKFQGRVTMTRDTSTSTVYMELSSLRSEDTAVYYCARVYDFWSVLSGFDIWGQGTLVTVSS
VL: DIQMTQSPSSLSASVGDRVTITCRASQAISNSLAWYQQKPGKAPKLLIYAASTLQSGVPSRFSGSGSGTDFTLTISSLQPEDFATYYCGQSYSTPPTFGQGTKLEIK
With B20, the binding result in assay [1] is “binds”.

B21: scFv G10(1F06) (scFv, V domains shown)
VH: QVQLVQSGAEVKKPGASVKVSCKASGYTFIGYYMHWVRQAPGQGLEWMGMIGPSDGSTSYAQKFQGRVTMTRDTSTSTVYMELSSLRSEDTAVYYCARDSSGLDPWGQGTLVTVSS
VL: DIQMTQSPSSLSASVGDRVTITCRASQSISNYLNWYQQKPGKAPKLLIYKASSLESGVPSRFSGSGSGTDFTLTISSLQPEDFATYYCQQSYIIPYTFGQGTKLEIK
notes: also called G10(1F6)
B21: the binding result in assay [2] is reported as “binds”.

B22: scFv G8(5G08) (scFv, V domains shown)
VH: QVQLVQSGAEVKKPGASVKVSCKASGYTFTSNYMHWVRQAPGQGLEWMGWMNPNSGNTGYAQKFQGRVTMTRDTSTSTVYMELSSLRSEDTAVYYCARGLYGDYFLYYGMDVWGQGTTVTVSS
VL: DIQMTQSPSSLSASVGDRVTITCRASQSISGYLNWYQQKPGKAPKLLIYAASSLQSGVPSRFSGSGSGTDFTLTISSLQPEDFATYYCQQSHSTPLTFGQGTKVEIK
Turning to B22, the binding result in assay [1] is “binds”.
